The values that follow are results of earlier work, collected in paper PMC7671103.

Values joined by “and” are separate entries in the source; they are usually repeats but may differ in a detail not shown here. Equal entries are not always repeated.

This data set has as its target CoV main protease (Mpro) (SARS-CoV) (UniProt P0C6X7).

On to “CoV main protease (Mpro) (from UniProt P0C6X7)”, for which the Kd was 800 nM and 2000 nM.
